# According to IntAct's records for PubMed 20952573:
# B1: Transcriptional regulatory protein RcsB (Escherichia coli (strain K12)), P0DMC7 (parent)
# chain: MNNMNVIIADDHPIVLFGIRKSLEQIEWVNVVGEFEDSTALINNLPKLDAHVLITDLSMPGDKYGDGITLIKYIKRHFPSLSIIVLTMNNNPAILSAVLDLDIEGIVLKQGAPTDLPKALAALQKGKKFTPESVSRLLEKISAGGYGDKRLSPKESEVLRLFAEGFLVTEIAKKLNRSIKTISSQKKSAMMKLGVENDIALLNYLSSVTLSPADKD
# partner: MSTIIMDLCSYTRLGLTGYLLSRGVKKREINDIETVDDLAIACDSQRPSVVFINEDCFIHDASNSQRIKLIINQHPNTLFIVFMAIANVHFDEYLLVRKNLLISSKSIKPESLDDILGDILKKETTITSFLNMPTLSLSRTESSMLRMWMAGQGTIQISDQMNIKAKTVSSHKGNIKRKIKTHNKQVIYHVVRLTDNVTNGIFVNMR
# Variants of: B1
# Conditions: with rcsa_ecoli rcsA
row,effect of a mutation on the interaction,Variant
1,decreasing interaction,MNNMNVIIADDHPIVLFGIRKSLEQIEWVNVVGEFEDSTALINNLPKLDAHVLITELSMPGDKYGDGITLIKYIKRHFPSLSIIVLTMNNNPAILSAVLDLDIEGIVLKQGAPTDLPKALAALQKGKKFTPESVSRLLEKISAGGYGDKRLSPKESEVLRLFAEGFLVTEIAKKLNRSIKTISSQKKSAMMKLGVENDIALLNYLSSVTLSPADKD [D56E]
